Experimental data: patent US20110245473A1 (Chugai, published 2011)
Positions count from the first letter of the chain named. Names and notes keep the numbering of the source. Values belong to the binder of their own block, whether it stands above or below them.

Experiments:
[1] = target: T1, SR344 (soluble human IL-6R, N-terminal 1st to 344th amino acids) (human, UniProt P08887 20-344, limits assumed); assay: cell-based or functional assay
T1 sequence (looked up): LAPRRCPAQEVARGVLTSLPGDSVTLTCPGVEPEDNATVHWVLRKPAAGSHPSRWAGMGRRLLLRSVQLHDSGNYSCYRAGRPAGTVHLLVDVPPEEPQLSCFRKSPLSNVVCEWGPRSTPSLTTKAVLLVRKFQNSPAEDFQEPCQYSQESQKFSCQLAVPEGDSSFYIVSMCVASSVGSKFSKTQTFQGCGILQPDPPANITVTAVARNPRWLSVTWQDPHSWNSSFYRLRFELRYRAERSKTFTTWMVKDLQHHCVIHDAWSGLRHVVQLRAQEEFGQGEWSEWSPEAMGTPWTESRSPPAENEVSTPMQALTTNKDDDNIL

[2] = target: T2, recombinant human IL-6R sR (R&D systems) (human, UniProt P08887 20-358); assay: SPR (Biacore T100), antibody captured on Protein A, rhIL-6sR as analyte, 25°C
T2 construct: Bought soluble receptor; also called rhIL-6sR; rhIL-s6R
T2 sequence (looked up): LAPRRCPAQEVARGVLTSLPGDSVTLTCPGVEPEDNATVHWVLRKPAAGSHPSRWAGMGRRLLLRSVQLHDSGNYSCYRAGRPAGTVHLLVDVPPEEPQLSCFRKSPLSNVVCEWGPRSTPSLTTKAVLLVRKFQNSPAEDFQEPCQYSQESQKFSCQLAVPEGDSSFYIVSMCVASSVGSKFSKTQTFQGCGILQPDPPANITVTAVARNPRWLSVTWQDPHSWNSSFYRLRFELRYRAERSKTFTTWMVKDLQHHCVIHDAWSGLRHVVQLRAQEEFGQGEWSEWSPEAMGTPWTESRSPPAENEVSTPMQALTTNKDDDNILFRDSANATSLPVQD

[3] = target: T1, SR344 (soluble human IL-6R, N-terminal …); assay: SPR (Biacore T100), antibody captured on Protein A/G, SR344 as analyte, 37°C
[4] = target: T2, recombinant human IL-6R sR (R&D systems); assay: SPR (Biacore T100), antibody captured on Protein A, rhIL-6sR as analyte, 25°C; remark: listed apart in the source
[5] = target: T2, recombinant human IL-6R sR (R&D systems); assay: SPR (Biacore T100), antibody captured on Protein A/G, 37°C; end of the range tied by the KD values of Table 3
[6] = target: T1, SR344 (soluble human IL-6R, N-terminal …); assay: as above
[7] = target: T3, soluble human FcRn (complex of FcRn and β2-microglobulin) (human, UniProt P55899 24-290; P61769 21-119); assay: SPR (Biacore 3000), antibody captured, human FcRn as analyte, pH 6.0
T3 construct: Expressed constructs contain the signal regions (FcRn Met1-Leu290; β2-microglobulin Met1-Met119); also called hFcRn

[8] = target: T1, SR344 (soluble human IL-6R, N-terminal …); assay: SPR (Biacore T100), SR344 as analyte, 37°C; end of the range tied by the KD values of Table 16

B2: H53/L28 (antibody, IgG1, V domains shown)
VH: QVQLQESGPGLVKPSETLSLTCAVSGYSISDDHAWSWVRQPPGEGLEWIGYISYSGITNYNPSLKGRVTISRDTSKNQFSLKLSSVTAADTAAYYCARSLARTTAMDYWGEGTLVTVSS
VL: DIQMTQSPSSLSASVGDSVTITCQASQDISSYLNWYQQKPGKAPELLIYYGSELHSGVPSRFSGSGSGTDFTFTISSLEAEDAATYYCQQGNSLPYTFGQGTKVEIE
notes: made from the humanized PM-1 IgG1 vectors; also called altered antibody H53/L28
fold reduction of KD compared to WT [3]: ~6 fold

B5: RDC-23 (antibody, V domains shown)
VH: QVQLQESGPGLVRPSQTLSLTCTVSGYSITSDHAWSWVRQPPGRGLEWIGYISYSGITTYNPSLKSRVTMLRDTSKNQFSLRLSSVTAADTAVYYCARVLARITAMDYWGQGSLVTVSS
VL: DIQMTQSPSSLSASVGDRVTITCRASQDISSYLNWYQQKPGKAPKLLIYYTSRLHSGVPSRFSGSGSGTDFTFTISSLQPEDIATYYCGQGNRLPYTFGQGTKVEIK
notes: IgG; also called H chain RDC-5H, L chain RDC-11L
BaF/gp130-neutralizing activity, 100% inhibitory concentration, against WT [1]: ~100 times higher than WT | fold improved affinity compared to WT [5]: 40 to 60 times | fold improved affinity compared to WT [6]: 40 to 60 times

B6: WT-M58 (antibody)
heavy: QVQLQESGPGLVRPSQTLSLTCTVSGYSITSDHAWSWVRQPPGRGLEWIGYISYSGITTYNPSLKSRVTMLRDTSKNQFSLRLSSVTAADTAVYYCARSLARTTAMDYWGQGSLVTVSSASTKGPSVFPLAPSSKSTSGGTAALGCLVKDYFPEPVTVSWNSGALTSGVHTFPAVLQSSGLYSLSSVVTVPSSNFGTQTYTCNVDHKPSNTKVDKTVERKSCVECPPCPAPPVAGPSVFLFPPKPKDTLMISRTPEVTCVVVDVSQEDPEVQFNWYVDGVEVHNAKTKPREEQFNSTFRVVSVLTVVHQDWLNGKEYKCKVSNKGLPAPIEKTISKTKGQPREPQVYTLPPSQEEMTKNQVSLTCLVKGFYPSDIAVEWESNGQPENNYKTTPPMLDSDGSFFLYSKLTVDKSRWQEGNVFSCSVMHEALHNHYTQKSLSLSP
light: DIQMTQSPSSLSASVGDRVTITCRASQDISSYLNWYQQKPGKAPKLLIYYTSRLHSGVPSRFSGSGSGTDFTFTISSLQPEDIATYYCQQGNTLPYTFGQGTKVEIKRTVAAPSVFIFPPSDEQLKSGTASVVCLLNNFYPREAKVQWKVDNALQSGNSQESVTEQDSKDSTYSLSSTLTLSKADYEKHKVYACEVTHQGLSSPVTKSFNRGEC
notes: L(WT) as L chain; copies: 2 + 2
binding relative to WT-IgG1 [7]: ~1.4 times of WT-IgG1

B8: F2H/L39-IgG1 (antibody, V domains shown)
VH: QVQLQESGPGLVKPSETLSLTCAVSGYSISDDHAWSWVRQPPGEGLEWIGYISYSGITNYNPSLQDRVTISRDNSKNTLYLQMNSLRAEDTAVYYCARLLARATAMDYWGQGILVTVSS
VL: DIQMTQSPSSLSASVGDSVTITCQASEDISSYLNWYQQKPGKAPELLIYYGSELESGVPSRFSGSGSGTDFTFTISSLEAEDAATYYCGQGNRLPYTFGQGTKVEIER
BaF/gp130-neutralizing activity, 100% inhibitory concentration, against WT [1]: ≥ 100 times higher than WT | ka relative to PF1-IgG1 [3]: ~0.5 fold of PF1-IgG1

B9: Fv3-M73 (antibody, V domains shown)
VH: B8 VH with Y27H, D31H, Y51F, S63T, D66G, L99S, A103T, Q111E, I113T
VL: B8 VL with E27R, Y32H, E53H, E55L
notes: also called H chain VH4-M73, L chain VL1-kappa
fold higher affinity than TOCILIZUMAB [8]: 3 times

Results, then the binder that gave them:

BaF/gp130-neutralizing activity, 100% inhibitory concentration, against WT [1]: ~50 times higher than WT | fold higher affinity than WT [2]: ~50 times
B1: RD-6 (antibody, V domains shown)
VH: B5 VH with V99L, I103A
VL: B5 VL with G89Q, R93T

koff [4]: 3.8e-05 s⁻¹
B3: RDC-8 (antibody, V domains shown)
VH: B5 VH with V99L
VL: B5 VL with G89Q, R93T
notes: IgG; also called H chain RDC-8H, L chain L(WT)

fold improved affinity compared to WT [3]: ~150 times
B4: PF1 antibody (antibody, IgG1, V domains shown)
VH: B2 VH with S99V, T103I
VL: B2 VL with Q89G, S93R
notes: also called PF1-IgG1; PF1_H/PF1_L

binding relative to WT-IgG1 [7]: ~3.8 times of WT-IgG1
B7: WT-M73 (antibody)
heavy: B6 heavy with N432A
light: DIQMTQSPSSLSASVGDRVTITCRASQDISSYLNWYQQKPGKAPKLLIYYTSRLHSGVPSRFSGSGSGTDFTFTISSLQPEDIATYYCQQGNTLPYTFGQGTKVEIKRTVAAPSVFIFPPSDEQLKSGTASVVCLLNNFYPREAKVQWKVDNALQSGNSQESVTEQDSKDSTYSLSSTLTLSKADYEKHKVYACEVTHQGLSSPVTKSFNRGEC
notes: WT-M58 with alanine at position 434 (EU numbering); L(WT) as L chain; copies: 2 + 2

fold higher affinity than TOCILIZUMAB [8]: 2 times
B10: Fv4-M73 (antibody, V domains shown)
VH: B8 VH with Y27H, D31H, Y51F, D66G, L99S, A103T, Q111E, I113T
VL: B8 VL with E27T, Y32H, E53H, E55L
notes: also called H chain VH3-M73, L chain VL3-kappa
